The source of these data is patent publication US20150232852.

Data set [1] addresses D-glucagon (all D-amino acids), biotinylated (Homo sapiens) (UniProt P01275). As to the kind of experiment: pulldown. The settings on record: D-DNA; 37 C, 1 mM Mg, 1 mM Ca, pH 7.4; direct pull-down.
For data set [2], the target named is glucagon, L-form, biotinylated (glucagon1-29-AEEAc-AEEAc-biotin) (Homo sapiens) (UniProt P01275). Nature of the data set: pulldown. The conditions noted are these: L-DNA; 37 C, 1 mM Mg, 1 mM Ca, pH 7.4; direct pull-down, spiegelmer.
Chain of glucagon, L-form, biotinylated (glucagon1-29-AEEAc-AEEAc-biotin) (Homo sapiens) (P01275 53-81): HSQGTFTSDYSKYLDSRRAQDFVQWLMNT

In general, Kd refers to the concentration at which binding is half-saturated. A higher Kd goes with weaker binding. With “CGACTCGAGAGGAAAGGTTGGTAAAGGTTCGGTTGGATTCACTCGAGTCG [259-H6-001 (aptamer)]”, in data set [1], the Kd worked out at 33 nM. As to “GCAGTGGGGAAATGGGAGGGCTAGGTGGAAGGAATCTGAGCTACTGC [257-E1-001 (spiegelmer)]”, in data set [2], the Kd is 179 nM. For “GCAGTGGGGAAATGGGAGGGCTAGGTGGAAGGAATCTGAGCTACTGC [257-E1-001 (aptamer)]”, the dissociation constant (Kd) in data set [1] was 137 nM. This counts as sub-micromolar.
